The source of these data is PMC4423959, “The Nucleoid Occlusion SlmA Protein Accelerates the Disassembly of the FtsZ Protein Polymers without Affecting Their GTPase Activity” (PLoS ONE, 2015).

First the molecules themselves.
T1: SlmA (UniProt P0C093 1-198)
T1 sequence: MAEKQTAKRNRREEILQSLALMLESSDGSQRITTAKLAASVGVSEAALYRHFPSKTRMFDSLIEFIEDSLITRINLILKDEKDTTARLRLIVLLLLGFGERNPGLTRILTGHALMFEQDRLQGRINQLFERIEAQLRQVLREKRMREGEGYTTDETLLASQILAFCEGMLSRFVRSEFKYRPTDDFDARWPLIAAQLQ

B1: SBS17 (dsDNA)
DNA 1: TCAACGTTAGTGACCATTTACTTACTTTTG
DNA 2: CAAAAGTAAGTAAATGGTCACTAACGTTGA
B2: SBScons (dsDNA)
DNA 1: AAGTAAGTGAGCGCTCACTTACGT
DNA 2: ACGTAAGTGAGCGCTCACTTACTT
B3: SlmA (free, without DNA) (natural protein, E. coli, UniProt P0C093 1-198, looked up)
chain: T1 sequence
notes: Nucleoid occlusion factor SlmA of E. coli; Dimer by SEC-MALLS in the absence of DNA; also called free SlmA; source: purified and cleaved from SUMO protein essentially as described in [31]
B4: SlmA·SBS complex (four SlmA monomers, as two dimers, bound to one SBScons DNA) (complex, E. coli, UniProt P0C093 1-198, looked up)
chain: T1 sequence
notes: Nucleoid occlusion factor SlmA of E. coli; same chain as m2; 4:1 SlmA:SBS by sedimentation velocity and SEC-MALLS; also called SlmA SBScons; SlmA:SBScons
B5: SBS12 (dsDNA)
DNA 1: CGCGAAGTGAACGCTAACTCACTG
DNA 2: CAGTGAGTTAGCGTTCACTTCGCG
B6: E. coli FtsZ (natural protein, UniProt P0A9A6 1-383, looked up)
chain: MFEPMELTNDAVIKVIGVGGGGGNAVEHMVRERIEGVEFFAVNTDAQALRKTAVGQTIQIGSGITKGLGAGANPEVGRNAADEDRDALRAALEGADMVFIAAGMGGGTGTGAAPVVAEVAKDLGILTVAVVTKPFNFEGKKRMAFAEQGITELSKHVDSLITIPNDKLLKVLGRGISLLDAFGAANDVLKGAVQGIAELITRPGLMNVDFADVRTVMSEMGYAMMGSGVASGEDRAEEAAEMAISSPLLEDIDLSGARGVLVNITAGFDLRLDEFETVGNTIRAFASDNATVVIGTSLDPDMNDELRVTVVATGIGMDKRPEITLVTNKQVQQPVMDRYQQHGMAPLTQEQKPVAKVVNDNAPQTAKEPDYLDIPAFLRKQAD
notes: Cell division protein FtsZ of E. coli; The nucleotide state (GDP: oligomers); In AUC and FCS a tracer share of FtsZ labelled on amine groups with Alexa Fluor 488 (FtsZ-Alexa 488) was mixed with unlabelled FtsZ; also called FtsZ-GDP; FtsZ-GTP; source: isolated as described elsewhere [40]

The target of data set [1] is FtsZ (Escherichia coli) (UniProt P0A9A6). To be noted: cited from earlier work.
Data set [2] has the same target. As to conditions: cited from earlier work. The source holds these as a separate data set.
The target in data set [3] is T1, SlmA. The data set can be described thus: fluorescence anisotropy; 300 mM KCl, 2 mM MgCl2; apparent Kd, 4:1 model; dG 18.0 ± 0.2 kcal/mol; 50 mM Tris-HCl, 300 mM KCl, 2 mM MgCl2, pH 7.5, 20 C; 10 nM labeled SBS in SlmA anisotropy titrations. To be noted: protein: recombinant; tags: SUMO tag cleaved off; chain copies: 4; label: fluorescein on T at position 27 from the 5' end of the antisense strand; blunt. (In fluorescence polarisation assays a small probe gives low polarisation when free and higher when bound to something large.)

Data set [4] has as its target T1, SlmA. The experiment in a line: fluorescence anisotropy; 300 mM KCl, 2 mM MgCl2; apparent Kd, 4:1 model; dG 20.3 ± 0.2 kcal/mol; 50 mM Tris-HCl, 300 mM KCl, 2 mM MgCl2, pH 7.5, 20 C; 10 nM labeled SBS in SlmA anisotropy titrations. As to conditions: protein: recombinant; tags: SUMO tag cleaved off; chain copies: 4; label: 5' fluorescein on sense strand (anisotropy); blunt.

Data set [5] concerns the molecule itself. The experiment in a line: SEC-MALS; Superdex 200 10/300 GL, 0.5 mL/min, 20°C, working buffer (50 mM Tris-HCl, 300 mM KCl, 2 mM MgCl2, pH 7.5); SlmA 10 μM (also 6 μM), no DNA.
The data set “E. coli FtsZ” deals with B6. The experiment in a line: fluorescence polarisation; anisotropy titration of FtsZ with 1 mM GTP + regeneration system into SlmA 2 μM with fluorescein-SBScons 0.2 μM (also 1 μM and 10 nM); 20°C, working buffer (50 mM Tris-HCl, 300 mM KCl, 2 mM MgCl2, pH 7.5); 1:1 model, apparent Kd in FtsZ monomer concentration. As to conditions: both partners purified.
In data set [6] the target is T1, SlmA. The data set can be described thus: fluorescence anisotropy; 300 mM KCl, 2 mM MgCl2; apparent Kd, 4:1 model; dG 17.6 ± 0.2 kcal/mol; 50 mM Tris-HCl, 300 mM KCl, 2 mM MgCl2, pH 7.5, 20 C; 10 nM labeled SBS in SlmA anisotropy titrations. As to conditions: protein: recombinant; tags: SUMO tag cleaved off; chain copies: 4; label: 5' fluorescein on sense strand (anisotropy); blunt.

Data set [7] deals with the molecule itself. The experiment in a line: AUC; sedimentation velocity, 48,000 rpm, 20°C, working buffer (50 mM Tris-HCl, 300 mM KCl, 2 mM MgCl2, pH 7.5); FtsZ-GDP 30 μM total with 6 μM FtsZ-Alexa 488 as tracer, without or with SlmA 15 μM and SBScons 4 μM.

Read-outs that look alike come from different tables or passages of the source.

Take SlmA (from UniProt P0C093): the Kd in the data set with FtsZ (Escherichia coli) [1] was 200 nM.

For the molecule MinC (from UniProt P18196), the Kd in the data set with FtsZ (Escherichia coli) [2] is 8000 nM. In the case of B1, the Kd in the data set with SlmA [3] worked out at 190 ± 30 nM. Turning to B2, the Kd with SlmA [4] was found to be 25 ± 4 nM. As to B3, the “stoichiometry N” value in data set [5] was 2. With B4, the Kd with E. coli FtsZ was determined as 12000 nM. B5: in the data set with SlmA [6], the Kd was determined as 270 ± 50 nM. Take B6: in data set [7], the binding result is “binds”.

A word on the stoichiometry N: it is a count of units in the complex or per binding partner.
